The results in this text go back to US20200024330A1.

The target in experiment [1] is HIV-1 Env of isolate MGRM-C-026 (HIV-1). The experiment in a line: cell-based or functional assay.
Experiment [2] has as its target HIV-1 Env of isolate 94UG103 (HIV-1). Description: cell-based or functional assay.
Experiment [3] deals with HIV-1 Env of isolate 92BR020 (HIV-1). The experiment in a line: cell-based or functional assay.
For experiment [4], the target named is HIV-1 Env of isolate JR-CSF (HIV-1) (UniProt P20871). The experiment in a line: cell-based or functional assay.
Experiment [5] addresses HIV-1 92UG005 Env (on pseudovirus) (HIV-1). Description: cell-based or functional assay.
Experiment [6] deals with HIV-1 94UG103 Env (on pseudovirus) (HIV-1). The experiment in a line: cell-based or functional assay.
Experiment [7] deals with HIV-1 93UG077 Env (on pseudovirus) (HIV-1). Description: cell-based or functional assay.
The target of experiment [8] is HIV-1 92UG024 Env (on pseudovirus) (HIV-1). Description: cell-based or functional assay.
Experiment [9] addresses aMLV envelope protein (on pseudovirus, negative control) (aMLV). The experiment in a line: cell-based or functional assay.
Experiment [10] has as its target HIV-1 MGRM-A-010 Env (on pseudovirus) (HIV-1). Description: cell-based or functional assay.
Experiment [11] has as its target HIV-1 MGRM-D-018 Env (on pseudovirus) (HIV-1). The experiment in a line: cell-based or functional assay.
Experiment [12] concerns the target HIV-1 MGRM-C-026 Env (on pseudovirus) (HIV-1). The experiment in a line: cell-based or functional assay.
In experiment [13] the target is HIV-1 NL43 Env (on pseudovirus) (HIV-1). The experiment in a line: cell-based or functional assay.
Experiment [14] addresses HIV-1 APV13 Env (on pseudovirus) (HIV-1). Description: cell-based or functional assay.
In experiment [15] the target is HIV-1 APV17 Env (on pseudovirus) (HIV-1). The experiment in a line: cell-based or functional assay.
Experiment [16] deals with HIV-1 APV6 Env (on pseudovirus) (HIV-1). The experiment in a line: cell-based or functional assay.
Experiment [17] has as its target HIV-1 MGRM-C-028 Env (on pseudovirus) (HIV-1). Description: cell-based or functional assay.
Experiment [18] has as its target HIV-1 MGRM-D-001 Env (on pseudovirus) (HIV-1). Description: cell-based or functional assay.
For experiment [19], the target named is panel of HIV-1 pseudoviruses of Table 52. Description: cell-based or functional assay.
Experiment [20] has as its target HIV-1 MGRM-AG-005 Env (on pseudovirus) (HIV-1). Description: cell-based or functional assay.
Experiment [21] concerns the target HIV-1 93IN905 Env (on pseudovirus) (HIV-1). The experiment in a line: cell-based or functional assay.
The target in experiment [22] is HIV-1 JRFL Env (on pseudovirus) (HIV-1). The experiment in a line: cell-based or functional assay.
Experiment [23] addresses HIV-1 JRCSF Env (on pseudovirus) (HIV-1) (UniProt P20871). Description: cell-based or functional assay.
Experiment [24] deals with HIV-1 MGRM-C-027 Env (on pseudovirus) (HIV-1). The experiment in a line: cell-based or functional assay.
The target of experiment [25] is HIV-1 CMU02 Env (on pseudovirus) (HIV-1). Description: cell-based or functional assay.
The target in experiment [26] is HIV-1 92TH021 Env (on pseudovirus) (HIV-1). Description: cell-based or functional assay.
The target in experiment [27] is WT JR-FL gp120 (HIV-1 (isolate JR-FL)). Description: ELISA on coated gp120; EC50 by nonlinear regression.
Experiment [28] has as its target JR-FL gp120 ΔV3 (HIV-1 (isolate JR-FL)). The experiment is described as above.
The target in experiment [29] is JR-FL gp120 ΔV1/ΔV2 (HIV-1 (isolate JR-FL)). The description is as above.
Experiment [30] has as its target HIV-1 APV17 envelope glycoprotein (Env) (HIV-1). Description: cell-based or functional assay.
For experiment [31], the target named is Env of the clade A HIV-1 pseudoviruses of the cross-clade 162-pseudovirus panel (n = 26). The experiment in a line: cell-based or functional assay.
Experiment [32] addresses Env of the clade F HIV-1 pseudoviruses of the cross-clade 162-pseudovirus panel (n = 15). The experiment in a line: cell-based or functional assay.
Experiment [33] concerns the target HIV-1 MGRM-C-028 envelope glycoprotein (Env) (HIV-1). The experiment in a line: cell-based or functional assay.
For experiment [34], the target named is HIV-1 93IN905 envelope glycoprotein (Env) (HIV-1). The experiment in a line: cell-based or functional assay.
Experiment [35] deals with HIV-1 APV6 envelope glycoprotein (Env) (HIV-1). The experiment in a line: cell-based or functional assay.
Experiment [36] addresses HIV-1 JRFL envelope glycoprotein (Env) (HIV-1). The experiment in a line: cell-based or functional assay.
Experiment [37] has as its target Env of the clade B HIV-1 pseudoviruses of the cross-clade 162-pseudovirus panel (n = 31). The experiment in a line: cell-based or functional assay.
The target of experiment [38] is HIV-1 APV13 envelope glycoprotein (Env) (HIV-1). Description: cell-based or functional assay.
Experiment [39] has as its target HIV-1 MGRM-C-027 envelope glycoprotein (Env) (HIV-1). Description: cell-based or functional assay.
In experiment [40] the target is Env of the clade AG HIV-1 pseudoviruses of the cross-clade 162-pseudovirus panel (n = 10). The experiment in a line: cell-based or functional assay.
The target of experiment [41] is Env of the clade G HIV-1 pseudoviruses of the cross-clade 162-pseudovirus panel (n = 15). Description: cell-based or functional assay.
The target of experiment [42] is HIV-1 94UG103 envelope glycoprotein (Env) (HIV-1). The experiment in a line: cell-based or functional assay.
Experiment [43] concerns the target HIV-1 NL43 envelope glycoprotein (Env) (HIV-1). Description: cell-based or functional assay.
The target of experiment [44] is HIV-1 JRCSF envelope glycoprotein (Env) (HIV-1) (UniProt P20871). The experiment in a line: cell-based or functional assay.
The target in experiment [45] is Env of the clade C HIV-1 pseudoviruses of the cross-clade 162-pseudovirus panel (n = 27). Description: cell-based or functional assay.
Experiment [46] deals with HIV-1 92BR020 envelope glycoprotein (Env) (HIV-1). Description: cell-based or functional assay.
Experiment [47] has as its target HIV-1 MGRM-A-010 envelope glycoprotein (Env) (HIV-1). Description: cell-based or functional assay.
Experiment [48] concerns the target HIV-1 92RW020 envelope glycoprotein (Env) (HIV-1). The experiment in a line: cell-based or functional assay.
The target of experiment [49] is HIV-1 93UG077 envelope glycoprotein (Env) (HIV-1). Description: cell-based or functional assay.
Experiment [50] addresses Env of the clade D HIV-1 pseudoviruses of the cross-clade 162-pseudovirus panel (n = 25). The experiment in a line: cell-based or functional assay.
Experiment [51] addresses Env of all HIV-1 pseudoviruses of the cross-clade 162-pseudovirus panel (n = 162). The experiment in a line: cell-based or functional assay.
Experiment [52] concerns the target HIV-1 Env of isolate 93IN905 (HIV-1). Description: cell-based or functional assay.
Experiment [53] addresses HIV-1 MGRM-C-026 envelope glycoprotein (Env) (HIV-1). Description: cell-based or functional assay.

B1: 4869_K15 (antibody, V domains shown)
VH: QVHLQESGPGLVTPSETLSLTCTVSNGSVSGRFWSWIRQSPGRGLEWIGYFSDTDRSEYNPSLRSRLTLSVDRSKNQLSLRLKSVTAADSATYYCARAQQGKRIYGIVSFGEFFYYYYMDAWGKGTPVTVSS
VL: SLNPLSLAPGATAKIPCGERSRGSRAVQWYQQKPGQAPTLIIYNNQDRPAGVSERFSGNPDVAIGVTATLTISRVEVGDEADYYCHYWDSRSPISWIFGGGTQLTVL
B1: the Primary Neutralization Index (B cell culture well 4869 K15) in experiment [1] came out at 104; in [2], 1.5; in [3], 3.9; in [4], 2.1.

B2: PGT-135 (5343_B08; 5344_E16) (antibody, V domains shown)
VH: QLQMQESGPGLVKPSETLSLSCTVSGDSIRGGEWGDKDYHWGWVRHSAGKGLEWIGSIHWRGTTHYKESLRRRVSMSIDTSRNWFSLRLASVTAADTAVYFCARHRHHDVFMLVPIAGWFDVWGPGVQVTVSS
VL: EIVMTQSPDTLSVSPGETVTLSCRASQNINKNLAWYQYKPGQSPRLVIFETYSKIAAFPARFVASGSGTEFTLTINNMQSEDVAVYYCQQYEEWPRTFGQGTKVDIK
As to B2, the IC50 (ug/ml), pseudovirus neutralization in [5] is greater than 10 µg/mL; in [6], greater than 10 µg/mL; in experiment [7], greater than 10 µg/mL; in experiment [8], 0.0139 µg/mL; in experiment [9], greater than 10 µg/mL; in experiment [10], greater than 10 µg/mL. The IC50 (ug/ml), pseudovirus neutralization is 0.0433 µg/mL in [11]; 0.0123 µg/mL in experiment [12]; 6.79 µg/mL in experiment [13]; 0.545 µg/mL in experiment [14]; greater than 10 µg/mL in experiment [15]; greater than 10 µg/mL in experiment [16]. For the same molecule, the IC50 (ug/ml), pseudovirus neutralization was 2.16 µg/mL in experiment [17]; greater than 10 µg/mL in experiment [18]; greater than 10 µg/mL in experiment [20]; 0.0183 µg/mL in experiment [21]; greater than 10 µg/mL in [22]; 0.113 µg/mL in experiment [23]. In addition, the IC50 (ug/ml), pseudovirus neutralization in experiment [24], in experiment [25] and in experiment [26] was greater than 10 µg/mL throughout. In experiment [19], this molecule had a % neutralized (viruses of the panel) of 54%. In [19], this molecule came in with a median IC50 (ug/ml), pseudovirus neutralization of 0.11 µg/mL.

B3: PGT-136 (antibody, V domains shown)
VH: QLQLQESGPGLVKPSETLSLTCTVSGGSMRGTDWGENDFHYGWIRQSSAKGLEWIGSIHWRGRTTHYKTSFRSRATLSIDTSNNRFSLTFSFVTAADTAVYYCARHKYHDIFRVVPVAGWFDPWGQGLLVTVSS
VL: EIVMTQSPPTLSVSPGETATLSCRASQNVKNNLAWYQLKPGQAPRLLIFDASSRAGGIPDRFSGSGYGTDFTLTVNSVQSEDFGDYFCQQYEEWPRTFGQGTKVDIK
B3: the values for the EC50 in [27], in experiment [28] and in experiment [29] were 0.2 µg/mL, 0.1 µg/mL and 0.3 µg/mL, respectively. The IC50 neutralization is greater than 10 µg/mL in [30]; greater than 10 µg/mL in experiment [33]; 0.0135 µg/mL in [34]; greater than 10 µg/mL in experiment [35]; greater than 10 µg/mL in experiment [36]; greater than 10 µg/mL in experiment [38]. The IC50 neutralization in [39], in experiment [42], in experiment [43], in experiment [44], in experiment [46] and in [47] was greater than 10 µg/mL each time. Besides, the figures for the IC50 neutralization in experiment [48], in experiment [49] and in experiment [53] were 0.738 µg/mL, greater than 10 µg/mL and 0.0065 µg/mL, respectively. Further, the Median IC50 against viruses neutralized with an IC50 <50 µg/ml came out at 2.34 µg/mL in experiment [31]; 4.75 µg/mL in experiment [32]; 13.2 µg/mL in experiment [37]; 29.1 µg/mL in experiment [40]; 18.9 µg/mL in experiment [41]; 7.52 µg/mL in [45]. The Median IC50 against viruses neutralized with an IC50 <50 µg/ml in [50] is 0.05 µg/mL; in [51] it was 7.81 µg/mL. Moreover, the Primary Neutralization Index (B cell culture well 5329 C19) in [1] is 6; in experiment [4], 0.9; in [52], 5.6. Moreover, the Primary Neutralization Index (B cell culture well 5366 P21) in [1] was determined as 6.2; in experiment [4], 1.1; in [52] it was 5.5.

B4: PGT-136 (5329_C19; 5366_P21) (antibody, V domains shown)
VH: QLQLQESGPGLVKPSETLSLTCTVSGGSMRGTDWGENDFHYGWIRQSSAKGLEWIGSIHWRGRTTHYKTSFRSRATLSIDTSNNRFSLTFSFVTAADTAVYYCARHKYHDIFRVVPVAGWFDPWGQGLLVTVSS
VL: EIVMTQSPPTLSVSPGETATLSCRASQNVKNNLAWYQLKPGQAPRLLIFDASSRAGGIPDRFSGSGYGTDFTLTVNSVQSEDFGDYFCQQYEEWPRTFGQGTKVDIK
B4: the IC50 (ug/ml), pseudovirus neutralization in experiment [5] is greater than 10 µg/mL; in experiment [6] it was greater than 10 µg/mL; in experiment [7] it was greater than 10 µg/mL; in experiment [8], 0.0915 µg/mL; in experiment [9], greater than 10 µg/mL; in [10] it was greater than 10 µg/mL. Moreover, the IC50 (ug/ml), pseudovirus neutralization was greater than 10 µg/mL in experiment [11]; 0.0065 µg/mL in experiment [12]; greater than 10 µg/mL in [13]; greater than 10 µg/mL in experiment [14]; greater than 10 µg/mL in [15]; greater than 10 µg/mL in experiment [16]. The IC50 (ug/ml), pseudovirus neutralization in [17] was greater than 10 µg/mL; in experiment [18] it was greater than 10 µg/mL; in experiment [20] it was greater than 10 µg/mL; in [21], 0.0135 µg/mL; in experiment [22], greater than 10 µg/mL; in experiment [23] it was greater than 10 µg/mL. Moreover, the IC50 (ug/ml), pseudovirus neutralization in experiment [24], in experiment [25] and in experiment [26] was greater than 10 µg/mL in each case. This molecule also displayed a % neutralized (viruses of the panel) in experiment [19] of 18%. Moreover, in experiment [19], the median IC50 (ug/ml), pseudovirus neutralization stood at 0.05 µg/mL.
